Measured values taken from patent publication US8586538B2, “Method of treating a patient suffering from a bleeding disorder comprising administering an antibody against the A3-C1 of FVIII” (Stichting Sanquin Bloedvoorziening, priority 2002, dated 2013).

Biological target: T1, interaction between FVIII light chain and LRP cluster II (Homo sapiens, UniProt P00451)
T1 construct: Recombinant LRP clusters II or IV (1 pmol/well) were adsorbed onto microtiter wells; made in house; host or cells: LRP cluster II: BHK cells; FVIII light chain: plasma-derived
T1 sequence (P00451 1668-2351): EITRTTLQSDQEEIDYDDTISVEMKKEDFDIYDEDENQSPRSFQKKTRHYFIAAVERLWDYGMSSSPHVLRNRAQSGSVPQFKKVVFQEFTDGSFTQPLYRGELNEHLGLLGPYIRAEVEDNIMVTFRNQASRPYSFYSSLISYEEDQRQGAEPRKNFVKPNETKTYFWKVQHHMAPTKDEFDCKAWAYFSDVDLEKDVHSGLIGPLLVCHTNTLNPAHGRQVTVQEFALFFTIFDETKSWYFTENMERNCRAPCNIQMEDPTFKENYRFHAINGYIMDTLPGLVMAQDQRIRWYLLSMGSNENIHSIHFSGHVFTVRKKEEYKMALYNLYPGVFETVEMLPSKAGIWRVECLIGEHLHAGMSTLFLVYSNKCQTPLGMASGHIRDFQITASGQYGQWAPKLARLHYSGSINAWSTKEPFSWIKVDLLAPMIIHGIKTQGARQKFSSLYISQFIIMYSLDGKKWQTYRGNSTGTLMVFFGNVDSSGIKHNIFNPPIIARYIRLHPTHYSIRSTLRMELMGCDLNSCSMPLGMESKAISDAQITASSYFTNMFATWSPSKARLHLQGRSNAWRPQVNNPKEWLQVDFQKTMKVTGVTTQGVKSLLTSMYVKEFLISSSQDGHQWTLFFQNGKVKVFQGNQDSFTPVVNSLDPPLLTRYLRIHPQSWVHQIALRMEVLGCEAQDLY
Test: Solid-phase competition: FVIII light chain binding to immobilized LRP cluster II
Conditions: FVIII light chain 25 nM
Experimental: FIG. 4. Effect of scFv antibody fragments on the interaction between FVIII light chain and LRP. A, FVIII light chain (LCh) (25 nM) was incubated with immobilized LRP cluster II (1 pmol/well) in a volume of 50 μl in 150 mM NaCl, 5 mM CaCl2, 1% (w/v) HSA, 0.1% Tween® 20, and 50 mM Tris (pH 7.4) in the presence of various concentrations (0-100 nM) of scFv KM41 (closed circles) or scFv KM36 (open circles) for 2 h at 37° C. After washing with the same buffer, bound FVIII light chain was quantified by incubation with peroxidase-conjugated anti-FVIII antibody CLB-CAg 12 for 15 min at 37° C. Residual binding is expressed as the percentage of binding in the absence of competitor and is corrected for nonspecific binding (less than 5% relative to binding to LRP cluster II-immobilized wells). Data represent the mean±S.D. of three experiments. B, FVIII light chain (50 nM) was incubated with immobilized LRP (16 fmol/mm^2) as described in the legend of FIG. 1. Binding was assessed in the absence (curve 1) or in the presence of increasing concentrations of scFv KM41 (20, 60, 300, 500 nM, curves 2-5, respectively). Complexes were allowed to form for 30 min before SPR analysis.
FIG. 5. Effect of scFv KM33 on the interaction between FVIII light chain and LRP. FVIII light chain (LCh) (25 nM) was incubated with immobilized LRP cluster II (1 pmol/well) in a volume of 50 μl in 150 mM NaCl, 5 mM CaCl2, 1% (w/v) HSA, 0.1% Tween® 20, and 50 mM Tris (pH 7.4) in the presence of various concentrations (0-30 nM) of scFv KM36 (open circles) or scFv KM33 (closed circles) for 2 h at 37° C. After washing with the same buffer, bound FVIII Light chain was quantified by incubation with peroxidase-conjugated anti-FVIII antibody CLB-CAg 12 for 15 min at 37° C. Residual binding is expressed as the percentage of binding in the absence of competitor and is corrected for nonspecific binding (less than 5% relative to binding to cluster-coated wells). Data represent the mean±S.D. of three experiments.
Recombinant LRP clusters II or IV (1 pmol/well) were adsorbed onto microtiter wells in 50 mM NaHCO3 (pH 9.8) in a volume of 50 μl for 16 h at 4° C. Wells were blocked with 2% (w/v) HSA, 150 mM NaCl, 5 mM CaCl2, and 50 mM Tris (pH 7.4) in a volume of 200 μl for 1 h at 37° C. After three rapid washes (less than 5 seconds each) with 150 mM NaCl, 5 mM CaCl2, 0.1% (v/v) Tween® 20, and 50 mM Tris (pH 7.4), FVIII light chain or its derivatives were incubated at various concentrations in a volume of 50 μl in a buffer containing 150 mM NaCl, 5 mM CaCl2, 1% (w/v) HSA, 0.1% (v/v) Tween® 20, and 50 mM Tris (pH 7.4) for 2 h. at 37° C. Bound ligand was detected by incubating with peroxidase-conjugated monoclonal antibody CLB-CAg 12 in the same buffer for 15 min at 37° C. […] In competition experiments, FVIII light chain (25 nM) was incubated with wells containing immobilized LRP clusters, either in the presence or absence of serial dilutions of competitor in a volume of 50 μl for 2 h at 37° C. Residual FVIII binding was detected as described above. Data were corrected for binding to empty microtiter wells, which was less than 5% relative to binding to wells containing immobilized LRP clusters.
(Note to Table II: Effect of FVIII a3-A3-C1 fragment derived synthetic peptides on the interaction between FVIII light chain and LRP cluster II. FVIII light chain (25 nM) was incubated with immobilized LRP cluster II (1 pmol/well) in a volume of 50 μl in 150 mM NaCl, 5 mM CaCl2, 1% (w/v) HSA, 0.1% Tween® 20, and 50 mM Tris (pH 7.4) in the presence or absence of various concentrations of synthetic peptide (0-1 mM) for 2 h at 37° C. After washing with the same buffer, bound FVIII light chain was quantified by incubation with peroxidase-conjugated anti-FVIII antibody CLB-CAg 12 for 15 min at 37° C. Half-maximum inhibition constants (IC50) represent the mean values±S.D. of three experiments.)

B1: scFv KM41: scFv antibody fragment directed against FVIII region Arg^1803-Lys^1818 (protein)
scFv: QVQLLQSAADVKKPGASVKVSCTASGYIFTSYDIDWVRQATGQGLEWMGWMNPNSGNAGFAQKFKGRLTLTRDTSTSTAYMELRRLESEDTAVYYCARSTPHSYSGSGLPPTSDSWGQGTLVTVSSGGGGSGGGGSGGGGSEIVLTQSPGTLSLSPGERATLSCRASQSVSSSFLGWYQQKPGQAPRLLIYGASSRATGIPDRFSGSGSGTDFTLTISRLEPEDFAVYYCQQYGISPLTFGGGTKLEIKRAAAEQKLISEEDLNGAAHHHHHH
  Effect on binding of FVIII light chain to immobilized LRP cluster II: inhibited the binding
